Results reported in paper PMC6506550 (Nature Communications, 2019).

Tests used:
Experiment in all cases: flow cytometry on cells
[1] = target: full-length wild-type RSV F on the cell surface (respiratory syncytial virus (strain not stated)) (UniProt P03420)
[2] = target: T1, RSV F variant in which the cytoplasmic tail was replaced with a Foldon trimerization motif, on the cell … (Respiratory syncytial virus, strain not …, UniProt P03420, stabilised); conditions: one partner purified
T1 construct: source: FreeStyle 293-F or HeLa cells, cotransfected with furin, on the cell surface; not shown: Foldon trimerization motif, C-terminal, kept

[3] = target: T2, full-length wild-type RSV F on the cell surface (Respiratory syncytial virus, …, UniProt P03420); conditions: one partner purified
T2 construct: also called full-length wild-type F; full-length RSV F; source: FreeStyle 293-F or HeLa cells, cotransfected with furin, on the cell surface

[4] = target: T3, full-length RSV F with the DS-Cav1 stabilizing mutations, on the cell surface (Respiratory syncytial virus, strain not …, UniProt P03420, S155C | S290C | S190F | V207L); conditions: one partner purified
T3 construct: source: FreeStyle 293-F, cotransfected with furin, on the cell surface

[5] = target: T4, full-length RSV F with the PR-DM stabilizing mutations, on the cell surface (Respiratory syncytial virus, strain not …, UniProt P03420, N67I | S215P); conditions: one partner purified
T4 construct: source: FreeStyle 293-F, cotransfected with furin, on the cell surface

For motavizumab Fab, the percent of CF-647-labeled CR9501 IgG binding blocked [1] was < 20%.

B1: CR9501 IgG (antibody, V domains shown)
VH: QVQLVQSGPGLVKPSQTLALTCTVSGASINSDNYYWTWIRQRPGGGLEWIGHISYTGNTYYTPSLKSRLSMSLETSQSQFSLRLTSVTAADSAVYFCAACGAYVLISNCGWFDSWGQGTQVTVSS
VL: EIVMTQSPSSLSASIGDRVTITCQASQDISTYLNWYQQKPGQAPRLLIYGASNLETGVPSRFTGSGYGTDFSVTISSLQPEDIATYYCQQYQYLPYTFAPGTKVEIK
notes: also called CF-647-labeled CR9501 IgG
B1: binds [2]; binds [3]; binds [4]. B1: binds [5].

B2: CR9501 Fab (Fab, V domains shown)
VH: B1 VH
VL: B1 VL
B2: binds [2].
